The text below walks through data of article PMC8269012.

This test has as its target PwNAC11-cYFP fusion protein (Picea wilsonii).

B1: ABF3 in pSPYNE (BiFC fusion) (natural protein)
chain: MGSRLNFKSFVDGVSEQQPTVGTSLPLTRQNSVFSLTFDEFQNSWGGGIGKDFGSMNMDELLKNIWTAEESHSMMGNNTSYTNISNGNSGNTVINGGGNNIGGLAVGVGGESGGFFTGGSLQRQGSLTLPRTISQKRVDDVWKELMKEDDIGNGVVNGGTSGIPQRQQTLGEMTLEEFLVRAGVVREEPQPVESVTNFNGGFYGFGSNGGLGTASNGFVANQPQDLSGNGVAVRQDLLTAQTQPLQMQQPQMVQQPQMVQQPQQLIQTQERPFPKQTTIAFSNTVDVVNRSQPATQCQEVKPSILGIHNHPMNNNLLQAVDFKTGVTVAAVSPGSQMSPDLTPKSALDASLSPVPYMFGRVRKTGAVLEKVIERRQKRMIKNRESAARSRARKQAYTMELEAEIAQLKELNEELQKKQVEIMEKQKNQLLEPLRQPWGMGCKRQCLRRTLTGPW
In turn, B1 registered a dual-luciferase assay in tobacco: activation of the ERD1 promoter reporter on simultaneous expression of PwNAC11 and ABF3, against the control group (PwNAC11 alone 2.67-fold over empty vector) of 3.04 fold.
